The record followed here is patent US20240207463A1, “RADIOACTIVE COMPLEX OF ANTI-EGFR ANTIBODY, AND RADIOPHARMACEUTICAL” (NIHON MEDI-PHYSICS CO., LTD., priority 2021, published 2024).

The test system of data set [1] is tumor derived from COLO205 cells. Nature of the data set: Accumulation in tumor, PET imaging in COLO205 tumor-bearing mice. It is filed as in vivo, mouse. The protocol: COLO205 cells of EGFR high expression human colorectal cancer-derived cell line purchased from ATCC were suspended in DMEM medium and administered subcutaneously to the flanks of 5-week-old female BALB/c nu/nu (Charles River Laboratories Japan, Inc.) at 5×10^6 cells to prepare tumor-bearing mice. The tumor volume was allowed to grow to about 100 to 250 mm^3, and the radioconjugate produced as described in Example 7 was administered at a dose of about 6 MBq/mouse (each n=3) into the tail vein. After 72 hr and 120 hr from the administration, images were taken using a small animal PET imaging device under conditions similar to those in Evaluation 2.
The arrow in the image indicates a tumor derived from COLO205 cells used for tumor-bearing. When VOI was set for the tumor and muscle (femoral muscle) in each imaged mouse and the SUV (Standard Uptake Value) was calculated, the value was 3.18±0.72 for tumor and 0.48±0.02 for muscle at 72 hr after administration and 4.38±0.96 for tumor and 0.48±0.05 for muscle at 120 hr after administration. Using the values, the radioactivity accumulation ratio of tumor to muscle was calculated. As a result, the ratio was 6.67±1.52 at 72 hr after administration and 9.19±2.02 at 120 hr after administration, and a higher level of radioactivity was accumulated in the tumor as compared with other organs and EGFR positive tumor could be depicted.

Data set [2] can be described thus: Hepatotoxicity and nephrotoxicity markers (AST, ALT, BUN) in COLO205 tumor-bearing mice. The settings on record: final day of observation. The protocol:
As a comparison group, a group (oxaliplatin administration group) was set by administering 33 μL of oxaliplatin into the tail vein at a dose of 5 mg/mL 3 times every other week. […] Each group contained 6 mice, and observation of general condition and measurement of the body weight and tumor volume were performed until the end of the observation period. In the Figure, the vertical axis indicates mean tumor volume of each group, and the horizontal axis indicates the number of days elapsed since administration of each medicament. […] On the final day of observation, the mice were autopsied, and the blood was collected. The collected blood was analyzed by a dry chemistry analyzer (SPOTCHEM D-02, manufactured by ARKRAY, Inc.) by measuring aspartate aminotransferase (AST), alanine aminotransferase (ALT), and blood urea nitrogen (BUN) in plasma by using SPOTCHEM D Total-A2 (manufactured by ARKRAY, Inc.), and hepatotoxicity and nephrotoxicity were evaluated.

Data set [3] deals with SW48 cells and COLO205 cells. Nature of the data set: Apoptosis induction, Caspase-Glo 3/7 Assay. It is filed as cell-based, human. The note with it: 72 hours, both cells. Here is the method:
In addition, unlabeled panitumumab was added to an antibody concentration the same as that of the group at each radioactivity concentration, and the cells were cultured. After 72 hours from the sample addition, an apoptosis assay kit (Caspase-Glo (registered trademark) 3/7 Assay, manufactured by Promega) was added, and Caspase-3/7 activity was detected using a microplate reader.

Data set [4] has as its system COLO205 cells, HCT-116 cells, SW48 cells, MIAPaCa-2 cells, NCI-H358 cells. Nature of the data set: Cytotoxic effect on cultured cells, overall statement. It is filed as cell-based, human. The note with it: 120 hours; up to maximum concentration added (antibody concentration 156 nM). The protocol:
In addition, unlabeled panitumumab was added to an antibody concentration the same as that of the sample at each radioactivity concentration, and the cells were cultured. After 120 hours from the sample addition, CellTiter-Glo (registered trademark) 2.0 Cell Viability Assay (manufactured by Promega) was added to the medium, chemiluminescence was detected using a microplate reader (SpectraMax i3x, manufactured by Molecular Devices, LLC), and the number of viable cells was calculated. The ratio of the number of viable cells under conditions where no antibody was added to the calculated number of viable cells was taken, and the cytotoxic effect was evaluated. Furthermore, the obtained results were fitted by a […] regression method using GraphPad Prism 7 (manufactured by GraphPad Software), and EC50 was calculated.

Regarding “Example 7: Complex with panitumumab using 89Zr-labeled DOTAGA-DBCO”, the “SUV (Standard Uptake Value), muscle (femoral muscle)” value in data set [1] (72 hr after administration) turned out to be 0.48±0.02; in data set [1] (120 hr after administration), 0.48±0.05. In addition, the “SUV (Standard Uptake Value), tumor” value was determined as 4.38±0.96 in data set [1] (120 hr after administration) and 3.18±0.72 in data set [1] (about 6 MBq/mouse tail vein, 72 hr after administration).

On to `O=C1[O][Pt]2([NH][C@@H]3CCCC[C@H]3[NH]2)[O]C1=O` [oxaliplatin, reference compound], for which, in data set [2], the “hepatotoxicity and nephrotoxicity (AST, ALT, BUN in plasma)” value is “no hepatotoxicity or nephrotoxicity was confirmed”.

In the case of “panitumumab [unlabeled panitumumab, reference compound]”, the “apoptosis induction (Caspase-3/7 activity)” value in data set [3] is listed as “apoptosis induction was not confirmed”. The cytotoxic effect entry in data set [4] is on record as “no cytotoxic effect was confirmed”.
